Reference: the RNAGym collection of RNA variant scans (doi:10.1073/pnas.2313332121)

B1: TPR t1 (parent)
chain: GACCAAUCUGCCCUCAGAGCUCGAGAACAUCUUCGGAUGCAGAGGAGGCAGGCUUCGGUGGCGCGAUAGCGCCAACGUCCUCAACCUCCAAUGCAUCCCACCACAUGAUGAUGCCUGAAGAGCCUUGGUUUUUUG

Variants of: B1
Assay: polymerase ribozyme fitness, log enrichment relative to wild type (log ratio); higher = more active; in vitro selection for triplet polymerase activity
Method in brief: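 A heterodimeric triplet polymerase ribozyme had each of its subunits mutagenized by PCR into a library, which was transcribed. One round of in vitro selection, done in triplicate, annealed each library with a biotinylated primer, its partner subunit and triplets, then incubated it frozen at −7 °C before gel excision of extended constructs, streptavidin-bead capture and RT-PCR. Fitness is the logarithm of genotype enrichment relative to wild-type enrichment, based on Illumina sequencing of inputs and outputs and inverse-variance-weighted replicate averages. A base-2 logarithm is used, and genotypes were kept only with ≥10 input reads and ≥1 read per output.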

| Variant | polymerase ribozyme fitness (log ratio) |
| --- | --- |
| G19U G47U C49G C70U C86U U87C U109A C115U | -6.81 |
| A26U G61U C79U G93C G120C | -3.87 |
| G45C C73A U81A C88G | -0.576 |
| G48U C86A A91C | -1.98 |
| G39U G60A G61A U87C C101U | -3.02 |
| G25A C56U | -5.12 |
| G61U C86U | -0.781 |
| G36U C72G C102U A119U | -4.07 |
| C34A A37G C53U U78G | -2.19 |
| A26U C56A | -4.03 |
| G63U U134C | -2.26 |
| A6U A37C | -0.207 |
| C13U U33C A50G A84C C124G | -5.51 |
| G25C C56U A68U A83G C123A C124G | -6.66 |
| C12U A18U G19C G35A G48A C72A U112A | -6.64 |
| C49U C115U | -1.16 |
| C4G A6C C8G G48U C72G C76G A95U C124U | -4.99 |
| C12A A91C U106A G117U | -5.61 |
| G23U G69U | -5.44 |
| A46G C70U | -0.0806 |
| C13A C82U | -1.59 |
| U9G G45C C79A U130C | -2.2 |
| G71C C85A C101U A105C | -5.59 |
| C53A C72U U87A G107U | -4.92 |

| Variant | polymerase ribozyme fitness (log ratio) |
| --- | --- |
| G48A U92A | -3.51 |
| C34G C64A U116C G117U | -7.25 |
| C101U G128C | -2.13 |
| G71U C123U | 0.812 |
| G71U C123G | 0.824 |
| A43C G52A | -2.92 |
| A6G A43G G69U | -0.0956 |
| C86G G122U | -1.75 |
| C8G A26U G52A G63C | -4.29 |
| C70A C94U | -1.23 |
| A16U G58A C62A | -3.9 |
| A50U G93C | -1.95 |
| C56U G57U A90C G110U | -3.95 |
| C13G C49A G60A C64U U96A U106G G110A U132C | -6.52 |
| C8A G42A C73U | -1.21 |
| G36U C53G G63C C86U U87A C101A U129G | -5.54 |
| A2C G71U G93A U112A G113C | -4.56 |
| C15G U59A G63C | -2.33 |
| U9A C62A C88U U92A | -4.26 |
| G44C C72G C88U C101U | -2.47 |
| C49U U126A | -1.95 |
| C3G G110U | -2.82 |
| A29G G45A A121C G128C | -2.4 |
| A6G C8A A26G A84U C99A | -5.28 |

| Variant | polymerase ribozyme fitness (log ratio) |
| --- | --- |
| C20U G61A C98A | -5.48 |
| C3U U109G G110A | -4.81 |
| A5C G45U G93A A121U | -0.00844 |
| C12A C72U G113C | -4.5 |
| C88G C115G | -3.51 |
| C3U C53U C73U C88U | -0.301 |
| C49G C64G G77U A83U G120U | -7.69 |
| A91U A121U | 0.873 |
| C8G G10C G19U A37U C53G | -3.79 |
| A6G C11A U92G | -4.04 |
| G35A C56U C72U G113A U133A | -5.8 |
| C3U C13A | -1.28 |
| G23U G61U C86A A100U C114U G117U | -7.47 |
| G117C C124U | -3.55 |
| C101A U130G | -2.8 |
| C31U C73G C89U | -5.24 |
| C97A G120U | -4.3 |
| C49G G57U A119G U133G | -0.101 |
| A83U G120U | -1.06 |
| C12A C31A | -6.73 |
| C3U C11U G39C G71A A119G | -0.917 |
| C11G A50C A75U C97A C102U | -4.52 |
| U7G G117C | -1.81 |
| C4A C12A C70U C86G G120U G128C | -2.75 |

| Variant | polymerase ribozyme fitness (log ratio) |
| --- | --- |
| C34A A50U G61A G71C C123G | -6.98 |
| U54C U133A | -0.0319 |
| C49U G52C U55C | -1.55 |
| C72G U87C G93A C104G C123G | -6.53 |
| C70A G117A | -3.29 |
| C11G C72G A91C | -0.65 |
| C49G G52U C56G C72G | -7.2 |
| A5U C28U G69A C124U U133G | -4.96 |
| A27G U32A G36U G44A G63C C76A | -7.06 |
| C3A G52A C70U C104A C124G | -2.12 |
| A41U G58C C62A G117C U126A G128A | -7.88 |
| C62A C88A | -2.76 |
| C11U C20U C56A C88U C114U U131G | -0.397 |
| C20A G58C C72U C76U | -3.69 |
| C3U G44C A46U G110A | -2.98 |
| C12G G120U G127U | 1.47 |
| G44C C102A G120U | -4.59 |
| G58A C99U | -2.8 |
| C72G G113C | -2.87 |
| U7A C13U C15U G44U G77U | -2.35 |
| C70A C123G | -0.534 |
| A2C C123U G128C | -0.305 |
| G113C C124G | -1.33 |
| C56G U96G G120U | -1.41 |

| Variant | polymerase ribozyme fitness (log ratio) |
| --- | --- |
| A46U C114A | -2.92 |
| C70G U81A G117U G120A | -5.65 |
| C53A U130G | -0.264 |
| A6U U78C | 0.144 |
| C3U A46U | -1.57 |
| C31U C53G C124A | -3.5 |
| A37U C72A C73U G117U C124A | -1.66 |
| U21A A27U U92A | -7.38 |
| A2G G117A | -1.6 |
| A6C G47U C124A | -1.59 |
| C34U C56G | -4.5 |
| U9G C11A U54G | -0.122 |
| C11G G48A C82U G122U | 0.0866 |
| C85U C123U | -1.28 |
| G69A U87G | -2.08 |
| C12U U30C G61U | -3.15 |
| U59G G117U U131G | -4.31 |
| G77U C88U C115U U131A | -1.33 |
| G45A C72U | -0.796 |
| C11A C20U C40A A43U A119U | -5.02 |
| G17U C49A U126C | -3.28 |
| A26U G47C G77A U78A | -5.33 |
| A37U C85U | -1.29 |
| C56A U78C G93A C123U | 1.38 |

| Variant | polymerase ribozyme fitness (log ratio) |
| --- | --- |
| A43U U78C | -1.53 |
| G36C U112G G117A | -3.75 |
| C20U C89U A95U C115U | -3.32 |
| C40U A41C C79A U92A | -5.35 |
| A119G U132A | 1.24 |
| A29C G45C G52A C85U | -5.05 |
| C4G C8U C15A G44U G61A | -4.85 |
| C20G A27G G120A | -5.6 |
| C11U C20A A37U G61A A83C C97A C98U U112C | -7.47 |
| A37C C53U U81G | -2.81 |
| A119U | -0.349 |
| A37U G69C C72U C85U | -1.89 |
| C97G U130G | -4.67 |
| C12G C62U C89A C94U | -2 |
| C40U G57U C79A | -1.3 |
| U7G C53U C88G C104U G113C U130G | -2.37 |
| G10A G42A | -1.32 |
| A29G A43G | -2.43 |
| U7A A29G G63U C98U | -3.67 |
| U78G A103C U130C | -5.75 |
| C15U C40U C114A | -4.3 |
| G10U G128U U132C | -0.604 |
| G52A C114G | -3.02 |
| C31U C49G | -4.41 |

| Variant | polymerase ribozyme fitness (log ratio) |
| --- | --- |
| A6C A108G C115U | -5 |
| C102U U109G | -5.46 |
| G60A G93A U131A | -0.952 |
| A5U C15A C62A G122A | -4.9 |
| C12U U130A | -0.0283 |
| C82G U130A | -1.07 |
| G60A C82U U131A | -0.161 |
| C62U C80G C124G | -5.66 |
| C40G U125A | -1.17 |
| U38G C76U | -1.36 |
| A6C C97G | -5.16 |
| G52U U54G | -1.03 |
| C22U G63A | -4.36 |
| U9A C12U G61C | -1.89 |
| C4A U59A C88A | -2.43 |
| G60A C101A | -1.57 |
| G39U A41G G44U C56G A105C A111U | -5.8 |
| A43C G61U C82U C104G C123A | -7.32 |
| A26U C34A C40U G110U | -6.16 |
| C56U U126G | -1.91 |
| G69U G122A | 0.377 |
| G63A C88U C97U G113C | -4.04 |
| A83C A111U U134G | -2.14 |
